According to patent US6824994B2, “Peptide ligands that mimic sensor kinases and inhibit response regulators” (priority 2000, dated 2004):
“Also recorded” adds a separate entry of the source.

Assays:
VanR = biological target: T1, VanR (Enterococcus faecium, UniProt Q06239); assay: Phage ELISA of phage-displayed peptides binding to immobilised VanR; settings: cloned N-terminal regulatory domain of VanR
T1 construct: GST (N, cleaved yes); made in house; host or cells: E. coli BL21 lambda DE3 (pGEX-2TK)
Procedure: Phage Display. Phage display was performed using the methods described by A. Sparks et al., Phage Display Of Peptides And Proteins; A Laboratory Manual (1996). Microtiter plate wells were coated with purified VanR and used to select binding phage from a library displaying combinatorial peptides, i.e., 10 random NNK codons followed by a Cys codon, TGC, in the eleventh position (N is A, G, C, or T, and K is G or T). After three rounds of selection, the binding of individual phage clones to the VanR target protein was assessed by phage-ELISA using an anti-M13 phage monoclonal antibody-horseradish peroxidase conjugate (Pharmacia). Ninety-six phage plaques were picked from the third round of selection and tested for their ability to bind to VanR and to BSA, by phage ELISA, to determine levels of specific and background binding, respectively.
For inserting determinants for desired peptide sequences into phage M13 DNA, oligonucleotides encoding the defined peptide sequences were cloned into the XhoI and XbaI sites within gene III of bacteriophage M13. The resulting recombinant phage were then tested for binding to various protein targets, immobilized within microtiter plate wells, by phage ELISA. […]
Sequence Analysis of Combinatorial Peptides. […] The deduced peptide sequences were further analyzed by alignment with the amino acid sequence of VanS using the program MultAlin. […]

VanR˜P-PVanH complex = biological target: T2, VanR˜P-PVanH complex (Enterococcus faecium, UniProt Q06239); assay: Gel shift analysis of VanR˜P binding to PVanH DNA; type: biochemical
T2 construct: GST (N, cleaved yes); made in house; host or cells: E. coli BL21 lambda DE3 (pGEX-2TK); phosphorylated with lithium acetyl phosphate
Procedure: (§1) Amplification and 5′-End-Labeling of PVanH DNA. A 254 bp DNA fragment containing the PVanH promoter region (residues −191 to 63) was obtained by PCR as described by T. Holman et al., 33 Biochem. 4625-4631 (1994) using a boiled cell preparation of En. faecium A634 as the template source. Amplified PVanH promoter DNA was 5′-end-labeled with [γ-32 P]ATP (specific activity of […]) and phage T4 polynucleotide kinase. The reaction mixture was incubated for 30 minutes at 37° C., and unincorporated ATP was removed by centrifugal gel filtration (Sephadex G-50 spin column, Amersham Pharmacia Biotech).
Phosphorylation of VanR with Acetyl Phosphate. VanR was phosphorylated as described previously in T. Holman et al., 33 Biochem. 4625-4631 (1994). The reaction was performed in a total volume of 100 μL which contained 50 mM HEPES (pH 7.2), 5 mM MgCl2, 50 mM lithium acetyl phosphate, and 9 μM VanR. […]
Gel Shift Analysis of VanR ˜P Binding to PVanH DNA. VanR-PVanH complexes were quantified by gel shift analysis as described by T. Holman et al., 33 Biochem. 4625-4631 (1994). […]
To start the reaction, ^32P-labeled PVanH promoter probe DNA (0.65 ng in 1 μL) was added, and the reaction mixture was incubated on ice for 15 minutes. The resultant VanR˜P-PVanH complexes were analyzed by nondenaturing PAGE. […]

VanR-PVanH complex = biological target: T3, VanR-PVanH complex (Enterococcus faecium, UniProt Q06239); assay: Inhibition of the interaction between 32P-labeled PVanH promoter DNA and VanR; type: biochemical; settings: chemically synthesized peptide in disulfide form; 32P-labeled PVanH DNA segment
T3 construct: GST (N, cleaved yes); made in house; host or cells: E. coli BL21 lambda DE3 (pGEX-2TK)
Procedure: as §1
Gel Shift Analysis of VanR ˜P Binding to PVanH DNA. VanR-PVanH complexes were quantified by gel shift analysis as described by T. Holman et al., 33 Biochem. 4625-4631 (1994). Complexes were formed in a total volume of 15 μL which contained 4 pmol of VanR-P, which was preincubated with the appropriate effector peptides (as aqueous solutions) for 10 minutes at room temperature in 20 mM HEPES (pH 7.2), 5 mM MgCl2, 0.1 mM Na2EDTA, 0.5 mM CaCl2, 10% glycerol, and 0.5 μg of salmon sperm DNA.
To start the reaction, ^32P-labeled PVanH promoter probe DNA (0.65 ng in 1 μL) was added, and the reaction mixture was incubated on ice for 15 minutes. The resultant VanR˜P-PVanH complexes were analyzed by nondenaturing PAGE. See generally J. Sambrook et al., Molecular Cloning: A Laboratory Manual, 2nd Ed. […]

[1] = biological target: T4, phosphoryl transfer from P˜VanS to PhoB (Escherichia coli, UniProt P0AFJ5); assay: Phosphotransferase assay, phosphoryl transfer from P˜VanS to PhoB; type: biochemical; settings: peptide at 1 mM
T4 construct: GST (N, cleaved yes); made in house; host or cells: E. coli BL21 lambda DE3 (pGEX-2TK)
Procedure: Phosphotransferase Assay. VanSc-GST (4 pmol) was labeled for 60 minutes at room temperature in a 5 μL volume containing, 50 mM Tris-HCl (pH 7.4), 5 mM MgCl2, and 100 mM KCl. The reaction was initiated by addition of 1 μL of 200 μM [γ-^32P]ATP which contained 1 μCi. After 60 minutes, the 5 μL reaction mixture was added to a 15 μL reaction mixture containing 80 pmol of PhoB and 2.5 mM PMSF all in the same buffer, with the appropriate peptide at a final concentration of 1 mM. Reactions were stopped by the addition of 10 μL of SDS gel loading buffer, and the resultant mixture was fractionated by SDS-PAGE. Phosphoproteins were assessed autoradiographically with a phosphorimager, as previously described.

T2 sequence (Q06239 whole entry, one chain of several): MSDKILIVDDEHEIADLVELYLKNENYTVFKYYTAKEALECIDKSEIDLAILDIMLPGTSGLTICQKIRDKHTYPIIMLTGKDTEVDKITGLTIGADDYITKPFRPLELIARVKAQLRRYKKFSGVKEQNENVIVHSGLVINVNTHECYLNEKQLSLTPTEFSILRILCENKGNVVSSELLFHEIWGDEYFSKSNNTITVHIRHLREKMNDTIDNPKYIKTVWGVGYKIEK
T1 sequence (Q06239 whole entry, the tested form may be a part): as the sequence (Q06239 whole entry, one chain of several) above
T3 sequence (Q06239 whole entry, one chain of several): as above
T4 sequence (P0AFJ5 whole entry): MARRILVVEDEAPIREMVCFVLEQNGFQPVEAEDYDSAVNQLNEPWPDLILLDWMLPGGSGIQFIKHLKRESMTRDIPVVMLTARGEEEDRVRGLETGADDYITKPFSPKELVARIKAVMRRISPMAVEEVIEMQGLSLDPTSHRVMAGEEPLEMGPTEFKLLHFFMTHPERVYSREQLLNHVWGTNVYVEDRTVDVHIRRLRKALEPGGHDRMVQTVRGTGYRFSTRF

| Substance | binding to the regulatory domain of VanR (VanR) | inhibition of the binding of VanR˜P to DNA segment of cognate promoter PVanH (VanR˜P-PVanH complex) | inhibition of the interaction between VanR and PVanH (VanR-PVanH complex) | inhibition of phosphoryl transfer from VanS˜P to PhoB [1] |
| --- | --- | --- | --- | --- |
| SEQ ID NO. 1: dodecamer peptide selected from a combinatorial phage-display library for binding to VanR; contains two Cys residues (SLCHDSVIGWEC) | localized to the N-terminal, regulatory domain of VanR; also recorded: bound reproducibly to the cloned regulatory domain of VanR preferentially | found to inhibit the binding of VanR˜P | inhibited the interaction between VanR and PVanH |  |
| SEQ ID NO. 2: modified peptide derived from SEQ ID NO. 1, more closely resembling VanS; the two Cys replaced with Ala and Ser (SLAHDSIIGYLS) |  | found to inhibit the binding of VanR˜P |  | inhibited phosphoryl transfer |
